Biological target: pakc_dicdi pakC (UniProt Q55GV3)
Sequence (Q55GV3 whole entry): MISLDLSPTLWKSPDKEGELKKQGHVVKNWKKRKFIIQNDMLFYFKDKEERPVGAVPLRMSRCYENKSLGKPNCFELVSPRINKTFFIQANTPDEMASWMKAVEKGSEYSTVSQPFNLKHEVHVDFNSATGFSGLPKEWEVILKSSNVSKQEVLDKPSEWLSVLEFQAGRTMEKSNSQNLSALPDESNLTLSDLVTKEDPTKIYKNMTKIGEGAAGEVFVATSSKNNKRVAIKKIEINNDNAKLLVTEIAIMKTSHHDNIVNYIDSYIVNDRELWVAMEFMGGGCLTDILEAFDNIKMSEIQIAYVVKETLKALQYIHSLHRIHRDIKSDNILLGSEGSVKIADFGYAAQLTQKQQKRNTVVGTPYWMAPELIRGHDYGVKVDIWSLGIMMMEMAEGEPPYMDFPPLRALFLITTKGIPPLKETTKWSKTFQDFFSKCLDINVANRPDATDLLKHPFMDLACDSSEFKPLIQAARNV

Sequence of Rho-related protein racB (Dictyostelium discoideum (Slime mold)), P34148 T17N (P34148 whole entry T17N): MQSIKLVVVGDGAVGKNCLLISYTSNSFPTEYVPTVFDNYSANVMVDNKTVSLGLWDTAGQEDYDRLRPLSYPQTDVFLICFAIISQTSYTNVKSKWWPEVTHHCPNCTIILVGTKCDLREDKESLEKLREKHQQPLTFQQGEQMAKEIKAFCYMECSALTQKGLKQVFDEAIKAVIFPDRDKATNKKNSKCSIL

## Rho-related protein racB (Dictyostelium discoideum (Slime mold)), P34148 T17N
  effect of a mutation on the interaction: decreasing interaction
